Ends that are not written are not given here. * marks the point of attachment. FITC = O=C1OC2(c3ccc(O)cc3Oc3cc(O)ccc32)c2ccc(NC(=S)*)cc21
B1: FITC-PKI^NES peptide (FITC-SGNSNELALKLAGLDINKT) (peptide)
peptide: {FITC}-SGNSNELALKLAGLDINKT
notes: also called fluorescent-labeled PKI^NES peptide; source: synthetic peptide (GenScript)
B2: hRio2^NES-R peptide used for crystallization (peptide)
peptide: GGSYGKIEELAQNFETMEFSR
modifications: not fully specified (residue 17)
notes: also called Selenomethione-hRio2-R; source: E. coli BL-21(DE3), MBP fusion purified (amylose, ion exchange), cleaved with TEV, peptide isolated by gel filtration; not shown: MBP, N-terminal, cleaved
B3: CPEB4^NES-R peptide used for crystallization (peptide)
peptide: GGSYRMIDILSSELSHMDFTR
notes: also called CPEB4-R; source: E. coli BL-21(DE3), MBP fusion purified (amylose, ion exchange), cleaved with TEV, peptide isolated by gel filtration; not shown: MBP, N-terminal, cleaved
B4: PKI^NES-Flip3 peptide used for crystallization (peptide)
peptide: GGSYRSFDMNELALKLAGLD
notes: PKI NES helix with the ΦXΦ motif moved to the N-terminus and made larger (FDM), after GGSY left from TEV cleavage; also called PKI-Flip3; source: E. coli BL-21(DE3), MBP fusion purified (amylose, ion exchange), cleaved with TEV, peptide isolated by gel filtration; not shown: MBP, N-terminal, cleaved
B5: CPEB4^NES peptide used for crystallization (GGSY-379RTFDMHSLESSLIDI393) (peptide)
peptide: GGSYRTFDMHSLESSLIDI
notes: residues before the NES that are left after TEV cleavage; NES of CPEB4, residues 379-393; source: E. coli BL-21(DE3), MBP fusion purified (amylose, ion exchange), cleaved with TEV, peptide isolated by gel filtration; not shown: MBP, N-terminal, cleaved
B6: hRio2^NES peptide used for crystallization (GGSY-389RSFEMTEFNQALEEI403) (peptide)
peptide: GGSYRSFEMTEFNQALEEI
modifications: not fully specified (residue 9); printed as GGSY^389^RSFEMTEFNQALEEI^403^
notes: residues before the NES that are left after TEV cleavage; NES of human Rio2 (hRio2), residues 389-403; The text speaks of a native and of a selenomethionine peptide; Residues 391-403 modelled; also called Selenomethione-hRio2; source: E. coli BL-21(DE3), MBP fusion purified (amylose, ion exchange), cleaved with TEV, peptide isolated by gel filtration; not shown: MBP, N-terminal, cleaved

biological target: Full-length human CRM1 (HsCRM1) (human, UniProt O14980 1-1071); test: differential bleaching monitored with a microscale thermophoresis instrument (direct titration); HsCRM1 serially diluted from 40 μM to 1.2 nM, mixed 1:1 with 120 μM ScRan-GTP and 40 nM FITC-PKI^NES; TB buffer with 15% glycerol, 0.05% Tween-20; 1 hr, room temperature; conditions: both partners purified
Sequence (O14980 whole entry): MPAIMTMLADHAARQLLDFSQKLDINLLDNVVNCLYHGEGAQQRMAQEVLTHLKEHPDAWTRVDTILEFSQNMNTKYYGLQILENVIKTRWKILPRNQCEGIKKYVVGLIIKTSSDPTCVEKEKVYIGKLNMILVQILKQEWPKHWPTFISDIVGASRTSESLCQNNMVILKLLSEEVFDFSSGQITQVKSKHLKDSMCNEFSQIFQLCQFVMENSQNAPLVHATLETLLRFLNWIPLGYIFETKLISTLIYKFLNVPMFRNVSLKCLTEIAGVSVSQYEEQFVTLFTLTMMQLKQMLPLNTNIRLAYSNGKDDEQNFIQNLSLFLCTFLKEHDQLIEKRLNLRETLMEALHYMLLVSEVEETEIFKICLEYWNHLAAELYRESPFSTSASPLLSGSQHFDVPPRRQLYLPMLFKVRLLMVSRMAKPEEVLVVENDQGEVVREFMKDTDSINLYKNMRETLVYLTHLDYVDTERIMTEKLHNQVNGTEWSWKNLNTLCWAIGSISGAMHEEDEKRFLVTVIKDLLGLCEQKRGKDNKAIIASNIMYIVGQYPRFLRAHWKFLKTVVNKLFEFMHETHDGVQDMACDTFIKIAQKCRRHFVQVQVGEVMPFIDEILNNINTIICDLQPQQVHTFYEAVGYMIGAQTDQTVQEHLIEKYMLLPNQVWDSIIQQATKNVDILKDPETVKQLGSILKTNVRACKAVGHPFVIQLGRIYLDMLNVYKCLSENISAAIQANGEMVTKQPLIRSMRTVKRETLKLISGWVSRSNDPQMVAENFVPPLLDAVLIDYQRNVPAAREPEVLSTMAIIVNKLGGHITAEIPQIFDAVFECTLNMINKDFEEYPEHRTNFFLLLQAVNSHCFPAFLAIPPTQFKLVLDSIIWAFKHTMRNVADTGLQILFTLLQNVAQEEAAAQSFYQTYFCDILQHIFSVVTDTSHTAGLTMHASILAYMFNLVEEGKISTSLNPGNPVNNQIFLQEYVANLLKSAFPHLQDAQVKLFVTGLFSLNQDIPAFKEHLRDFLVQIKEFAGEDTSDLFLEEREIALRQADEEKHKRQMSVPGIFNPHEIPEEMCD

Binder | binding result
B1 | binds

biological target: CRM1* (ScCRM1 residues 1-1058, Δ377-413, V441D, 537DLTVK541 to GLCEQ) (Saccharomyces cerevisiae, UniProt P30822 1-1058, Δ377–413 | V441D | 537DLTVK541 to GLCEQ); test: crystal structure; quaternary CRM1*-RanGppNHp-RanBP1 (Yrb1p)-NES peptide complexes, assembled 1:3:10 and purified by gel filtration in GF buffer; crystals in 17% PEG3350, 100 mM Bis-Tris pH 6.4, 200 mM ammonium nitrate, 10 mM spermine HCl; conditions: both partners purified

Binder | binding result
B2 | binds
B3 | binds
B4 | binds
B5 | binds
B6 | binds
